Where a chain is given by its changes, count along the chain named.
B1: AS75751 (VHH)
VHH: QVRLVESGGGSVQAGGSLRLSCVASGYFYNTYYFMGWFRQAPGKEREGVAAIDTDGRTSYADSVKGRFTISKDNAKNTLYLQMNSLKPEDTAMYYCAAGFGYMNVIQALNGMRQNPDYWGQGTQVTVSS
notes: camel sdAb; crude E. coli supernatant
B2: AS63932 (VHH)
VHH: QVQLEESGGGSVQAGGSLRLSCVASGYTYGSTFMGWFRQNPGKEREGVAVIYTGGGSTWYASSVKGRFTISQDNAKNTVYLQMNSLKPEDTAMYYCAARYGSGNVNYWGQGTQVTVSS
notes: as for B1
B3: AS76422 (VHH)
VHH: QVKLVESGGGSVQAGGSLRLSCAASGYTFAGNCLGWFRQAPGKGREGVVTYNNFGVANYADSVKGRFTVSQDNAKNTLLLQMNSLEPEDTAMYYCAADRRDGRRWSQPCEWNTWGQGTQVTVSS
notes: as for B1
B4: AS64142 (VHH)
VHH: QVHLMESGGGLVQTGGSLRLSCTASGFTFDRNAMRWYRQAPGKEREGVSCIDWTGANIAYADSVKGRFTISRDNAKNTLYLQMNSLKPEDTGMYYCAADTTSGYCSGFWSTSRYSWGQGTQVTVSS
notes: as for B1
B5: AS64057 (VHH)
VHH: B4 VHH with H3Q, M5E, D52S, Y104S, S115Y
notes: as for B1
B6: AS64114 (VHH)
VHH: QVQLQESGGGSVQAGGSLTLSCEASGNTYSTNYMGWFRQAPGKEREEVAVIYTRGGHTYYVDSVRGRFTISQDNAKNTVYLQMNSLKPEDTAMYYCAAASRHRLRLNNPRDYDYWGQGTQVTVSS
notes: as for B1
B7: AS64072 (VHH)
VHH: QVQLVESGGGSVQAGGFLRLSCALSGYSYYINLMAWFRQAPGKEREAVAAHGPVSGTAYYTDSVKGRFTISRDPGKNTMYLQMFSLQPEDTALYYCAAETTMGWAHERGYRYWGQGTQVTVSS
notes: as for B1
B8: AS64597 (VHH)
VHH: QVHLVESGGGSVQAGGSLRLSCAASGYTYRVNFMGWFRQTPGKEREGVATIDSGVGTTYYADSVKGRFTISHNNAKNTIYLQMNSLKPEDTAMYYCAAGGPPTDGDRWYPLRPPGYNYWGQGTQVTVSS
notes: as for B1
B9: AS64097 (VHH)
VHH: QVHLMESGGGSVQAGGSLRLSCEASGYTYSRNCMGWFRQAPGKEREGVAAINTGGGSTYYADSLEGRFTISQDNAKNTMYLQMNSLKPEDTAMYYCAAGPDLGGSWCRPVERAFTYWGQGTQVTVSS
notes: as for B1
B10: AS69500 (VHH)
VHH: QVRLVESGGGSVQAGGSLRLSCAADRYTYSSACMGWFRQAPGKEREGVASIFTGTGGSTYYADSVKGRFTISQDNAKNTVYLQMNSLKPEDTAIYYCAARAFQVGYCYLRTDVYNYWGQGTQVTVSS
notes: as for B1
B11: AS75378 (VHH)
VHH: QVQLEESGGGSVQAGGSLRLSCVVSGNTRSTTYMGWFRQAPGKEREGVAIVYTGGRDTYYAASVKGRFTISQDNAKTTIYLQMNSLEPEDTAMYYCAARSYEYTYWGRGTQVTVSS
notes: as for B1
B12: AS75383 (VHH)
VHH: EVQLAESGGGSVQAGGSLRLSCVASGYTFSSYCLGWFRQAPGKQRQGVATFNNRGVANYHDSVKGRFTASVDNAKNTLLLQMNSLEPDDTAMYYCAADRRYGRQWYQPCEWNTWGQGTQVTVSS
notes: as for B1
B13: AS64130 (VHH)
VHH: EVQLAESGGGSVQAGGSLRLSCAASGYTYRSNFMGWFRQAPAKEREGVATIDSRGTITYYADSVKGRFTISQDNEKNTVYLQMNSLKPEDTAMYYCAAGGPRTNDDRWYPLRPPGYNYWGQGTQVTVSS
notes: as for B1
B14: AS68320 (VHH)
VHH: QVHLVESGGDSVQAGGSLRLSCAASGYTYNTNYMGWFRQAPGKEREGVAAIYRHSGNTAYADSVKGRFTISQDYAKNTVYLQMNSLKPEDTAMYYCAAGRAGPWALMRPTEFGYWGQGTQVTVSS
notes: as for B1
B15: AS64160 (VHH)
VHH: EVQLVESGGGSVQAGGSLRLSCAASVYTSSSYCMGWFRQAPGKEREGVAAMCFGGLVTHYADSVKGRFTISQDNAKNTVYLQMNSLKPEDTAMYYCAADFGRDKNYLRPLLPHAYNYWGQGTQVTVSS
notes: as for B1
B16: AS64443 (VHH)
VHH: QVHLVESGGGSVQAGGSLRLSCAASGYTDSSVYIGWFRQAPGKEREEVAIIYTGGESTHYRSSVKGRFTVSQDNAKNTLYLQMNSLKPEDTAMYYCAARFPAVTYWGQGTQVTVSS
notes: as for B1
B17: AS64395 (VHH)
VHH: QVRLVESGGGSVQAGGSLRLSCAASGSTYSTNFMGWFRQAPGKEREGVATLVTWAERTAYADSVKGRFTISQDRAKNTVYLQMNGLKPEDTAMYYCAAAASTAVRLLDPGDFAYWGQGTQVTVSS
notes: as for B1
B18: AS64300 (VHH)
VHH: QVHLVESGGGSVQTGGSLRLSCAVSGDIYNLMSMAWFRRAPGKEREGVAYINTIIGNTYYTDSVKGRFTISRDNSKNTLYLQMNNLKPEDTAMYYCAAFNYGGAWYEERSYKYWGQGTQVTVSS
notes: as for B1
B19: AS64228 (VHH)
VHH: QVQLKESGGGSIQAGGSLRLSCAASGVSYNRCSMGWYRQAPGKGRELVSRIQPGGNTYYADSVKGRFTVSQDNAKNTVSLQMNSLKPEDTAMYYCNALCWRENVNYWGQGTQVTVSS
notes: as for B1
B20: AS68351 (VHH)
VHH: QVQLEESGGGLVQPGGSLRLSCAASGDTFRAYYMNWVRQAPGKGFEWVSGISASGGRTSYADSVKGRFTISRDNAKNTLYLQLNSLSTEDTGMYYCVKGAVRLSTSSVRDSSWGQGTQVTVSS
notes: as for B1
B21: AS64123 (VHH)
VHH: QVQLAESGGGSVQAGGSLRLSCAASGYTYTSNWLGWFRQAPGKEREEVAIIYTGSGSTHYRSSVKGRFTISQDNAKNTVYLQMNSLKPEDTAMYYCAARFSEYNYWGQGTQVTVSS
notes: as for B1
B22: AS63999 (VHH)
VHH: B21 VHH with Q1E, A5V, T30S, L34M, S55G, G56I, F100Y, S101T, E102D
notes: as for B1
B23: AS64137 (VHH)
VHH: QVRLVESGGGSVQAGGSLRLSCAASGSTYSTNFMGWFRQAPGKEREGVATLVTWVERTAYADSVKGRFTISQDRAKNTVYLQMNSLKPEDTAMYYCAAAAASTDVRLLDPGDFAYWGQGTQVTVSS
notes: as for B1
B24: AS64634 (VHH)
VHH: QVRLVESGGGSVQAGGSLRLSCAASGYSFRGDFMCMGWFRQTPGKGREGVAVFYPGGGSTNYADSAKGRFTISQDNAKNTMYLQMNTLKPEDTAMYYCAARRWVSGTCYWDSDFHYWGQGTQVTVSS
notes: as for B1

Target: T1, extracellular domain of human DLL3 protein (aa27-466) having an N-terminal FLAG tag (AdipoGen, AG-40B-0151) (human, UniProt Q9NYJ7 27-466)
T1 construct: range 27-466; also called DLL3 ECD protein
T1 sequence (looked up): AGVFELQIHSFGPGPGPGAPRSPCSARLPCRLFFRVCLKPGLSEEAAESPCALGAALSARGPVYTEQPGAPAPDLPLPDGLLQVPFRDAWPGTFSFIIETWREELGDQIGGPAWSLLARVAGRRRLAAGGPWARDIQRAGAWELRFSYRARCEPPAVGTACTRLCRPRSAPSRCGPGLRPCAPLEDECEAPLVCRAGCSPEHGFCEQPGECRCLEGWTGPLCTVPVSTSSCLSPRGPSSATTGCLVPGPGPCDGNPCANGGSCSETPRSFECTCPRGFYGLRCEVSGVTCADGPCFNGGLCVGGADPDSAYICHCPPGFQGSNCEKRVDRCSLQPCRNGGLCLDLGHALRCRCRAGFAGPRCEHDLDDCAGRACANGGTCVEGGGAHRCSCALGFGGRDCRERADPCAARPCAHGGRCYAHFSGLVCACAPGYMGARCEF
Experiment: ELISA (protein), FACS (cells)

Binder	binding result
B1	binds
B2	binds
B3	binds
B4	binds
B5	binds
B6	binds
B7	binds
B8	binds
B9	binds
B10	binds
B11	binds
B12	binds
B13	binds
B14	binds
B15	binds
B16	binds
B17	binds
B18	binds
B19	binds
B20	binds
B21	binds
B22	binds
B23	binds
B24	binds

Reference: patent publication US20220249563A1 (LEGEND BIOTECH IRELAND, published 2022)
